From US20210253724A1 (Hoffmann-La Roche, published 2021)
Each block holds one binder with its values, some of them ahead of it.

Columns and labels:
[1] = target: T1, human CEACAM5 (CEA) on cells (human, UniProt P06731 35-685); assay: flow cytometry on CHO-k1-humanCEACAM5 clone 11
T1 construct: Endogenous on MKN45 cells; full-length cDNA transfected into CHO-K1 cells; also called CEA expressed on MKN45 cells; CHO-k1-huCEACAM5 clone 11, clone 12, clone 13
T1 sequence: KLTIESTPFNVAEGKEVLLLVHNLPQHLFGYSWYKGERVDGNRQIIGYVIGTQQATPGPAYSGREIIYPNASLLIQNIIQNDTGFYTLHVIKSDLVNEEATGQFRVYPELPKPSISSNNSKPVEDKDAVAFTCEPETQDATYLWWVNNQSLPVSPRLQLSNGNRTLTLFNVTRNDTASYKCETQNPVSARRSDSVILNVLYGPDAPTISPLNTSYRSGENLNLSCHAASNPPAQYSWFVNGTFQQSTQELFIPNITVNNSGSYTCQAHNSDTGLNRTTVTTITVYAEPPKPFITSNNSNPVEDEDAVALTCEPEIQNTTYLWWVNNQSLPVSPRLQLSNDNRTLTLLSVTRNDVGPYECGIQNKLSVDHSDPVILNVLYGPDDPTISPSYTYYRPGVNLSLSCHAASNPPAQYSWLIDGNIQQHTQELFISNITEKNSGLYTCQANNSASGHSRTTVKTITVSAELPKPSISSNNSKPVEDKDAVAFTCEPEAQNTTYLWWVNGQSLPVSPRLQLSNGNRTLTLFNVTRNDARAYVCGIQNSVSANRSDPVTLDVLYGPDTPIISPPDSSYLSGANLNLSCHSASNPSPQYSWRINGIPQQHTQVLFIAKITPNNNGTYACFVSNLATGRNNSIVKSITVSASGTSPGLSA
Procedure: (§1) Cells were incubated for 30 min at 4° C. and then washed twice with 80 μL/well DPBS. […] Cells were washed twice with 80 μL/well DPBS and then fixed in 30 μL/well DPBS containing 1% Formaldehyde for at least 15 minutes. The same or the next day cells were resuspended in 50 μL/well FACS-buffer and acquired using MACSQuant Analyzer X (Miltenyi Biotec).

[2] = target: T1, human CEACAM5 (CEA) on cells; assay: flow cytometry on CHO-k1-humanCEACAM5 clone 12
Procedure: as §1

[3] = target: T2, cynomolgus monkey CEACAM5 on CHO-k1-cynoCEACAM5 clone 8 cells (cynomolgus monkey); assay: flow cytometry on CHO-k1-cynoCEACAM5 clone 8; set-up: unit not given beside the values
T2 construct: whole, on cells

[4] = target: T3, human 4-1BB (CD137) on Jurkat-hu4-1BB-NFκB-luc2 reporter cells (human, UniProt Q07011 24-255); assay: cell-based or functional assay
[5] = target: T3, human 4-1BB (CD137) on …; assay: cell-based or functional assay; set-up: AUC of NFκB-luciferase activation curve, no CEA+ cells / AUC of NFκB-luciferase activation curve, with CHO-k1-cynoCEACAM5 clone 8: unit not given beside the values
[6] = target: T1, human CEACAM5 (CEA) on cells; assay: flow cytometry on CHO-k1-humanCEACAM5 clone 13
Procedure: as §1

[7] = target: T2, cynomolgus monkey CEACAM5 on …; assay: flow cytometry on CHO-k1-cynoCEACAM5 clone 8
Procedure: as §1

[8] = target: T1, human CEACAM5 (CEA) on cells; assay: flow cytometry on CHO-K1-humanCEACAM5 clone 12 cells, goat F(ab')2 anti-human Fcγ-PE, median fluorescence intensity baseline corrected
Procedure: as §1

[9] = target: T3, human 4-1BB (CD137) on …; assay: flow cytometry on Jurkat-hu4-1BB-NFκB-luc2 cells
Procedure: Plates were incubated for 30 minutes at 4° C. and washed once with 200 μL 4° C. cold DPBS buffer. […] Cells were washed twice with 200 μL 4° C. DPBS buffer and then resuspended in 50 μL/well DPBS containing 1% Formaldehyde for fixation. The same or the next day cells were resuspended in 100 μL FACS-buffer and acquired using MACSQuant Analyzer X (Miltenyi Biotec).

[10] = target: T4, human PD-L1 on MKN45-huPD-L1 cells (human, UniProt Q9NZQ7 19-290); assay: flow cytometry on MKN45-huPD-L1 cells, goat F(ab')2 anti-human Fcγ-PE, gMFI baseline corrected
T4 construct: Full-length cDNA transfected into MKN45 cells; also called humanPD-L1-expressing MKN45 cells
T4 sequence (Q9NZQ7 19-290 limits assumed): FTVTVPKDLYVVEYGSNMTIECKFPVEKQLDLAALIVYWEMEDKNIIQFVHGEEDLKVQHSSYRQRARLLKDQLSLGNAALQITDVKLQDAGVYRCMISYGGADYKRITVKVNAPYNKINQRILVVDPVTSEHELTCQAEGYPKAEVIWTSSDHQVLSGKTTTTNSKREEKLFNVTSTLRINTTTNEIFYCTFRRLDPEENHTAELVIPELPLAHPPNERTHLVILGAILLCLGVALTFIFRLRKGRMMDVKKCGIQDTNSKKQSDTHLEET
Procedure: as §1

EC50 [1]: 11.4 nM | EC50 [2]: 13.9 nM | AUC [3]: 4850 | EC50 of NFκB-luciferase activation curve, no CEA+ cells [4]: 0.04 nM | EC50 of NFκB-luciferase activation curve, with CHO-k1-cynoCEACAM5 clone 8 [4]: 0.07 nM | EC50 of NFκB-luciferase activation curve, with CHO-k1-humanCEACAM5 clone 11 [4]: 0.04 nM | EC50 of NFκB-luciferase activation curve, with CHO-k1-humanCEACAM5 clone 12 [4]: 0.03 nM | AUC of NFκB-luciferase activation curve, no CEA+ cells [5]: 1320 | AUC of NFκB-luciferase activation curve, with CHO-k1-cynoCEACAM5 clone 8 [5]: 43100 | AUC of NFκB-luciferase activation curve, with CHO-k1-humanCEACAM5 clone 11 [5]: 65700 | AUC of NFκB-luciferase activation curve, with CHO-k1-humanCEACAM5 clone 12 [5]: 58900 | EC50 [6]: 12.9 nM | EC50 [7]: 48.8 nM
B1: 2+1 H2H 4-1BB (20H4.9)/CEA (A5B7) P329GLALA IgG1 (bispecific antibody)
heavy 1: QVQLQQWGAGLLKPSETLSLTCAVYGGSFSGYYWSWIRQSPEKGLEWIGEINHGGYVTYNPSLESRVTISVDTSKNQFSLKLSSVTAADTAVYYCARDYGPGNYDWYFDLWGRGTLVTVSSASTKGPSVFPLAPSSKSTSGGTAALGCLVEDYFPEPVTVSWNSGALTSGVHTFPAVLQSSGLYSLSSVVTVPSSSLGTQTYICNVNHKPSNTKVDEKVEPKSCDKTHTCPPCPAPEAAGGPSVFLFPPKPKDTLMISRTPEVTCVVVDVSHEDPEVKFNWYVDGVEVHNAKTKPREEQYNSTYRVVSVLTVLHQDWLNGKEYKCKVSNKALGAPIEKTISKAKGQPREPQVCTLPPSRDELTKNQVSLSCAVKGFYPSDIAVEWESNGQPENNYKTTPPVLDSDGSFFLVSKLTVDKSRWQQGNVFSCSVMHEALHNHYTQKSLSLSP
heavy 2: not shown
light 1: not shown
light 2: EVKLVESGGGLVQPGGSLRLSCATSGFTFTDYYMNWVRQPPGKALEWLGFIGNKANGYTTEYSASVKGRFTISRDKSQSILYLQMNTLRAEDSATYYCTRDRGLRFYFDYWGQGTTLTVSSASVAAPSVFIFPPSDEQLKSGTASVVCLLNNFYPREAKVQWKVDNALQSGNSQESVTEQDSKDSTYSLSSTLTLSKADYEKHKVYACEVTHQGLSSPVTKSFNRGEC
notes: also called 2+1 H2H anti-4-1BB (20H4.9)×anti-CEA (A5B7) huIgG1 P329GLALA

binding result [8]: no binding (tested: about 300 nM) | EC50 [9]: 0.073 nM | binding result [10]: no binding (tested: 100 nM) | AUC [3]: 136 | EC50 of NFκB-luciferase activation curve, no CEA+ cells [4]: 0.19 nM | EC50 of NFκB-luciferase activation curve, with CHO-k1-cynoCEACAM5 clone 8 [4]: 0.17 nM | EC50 of NFκB-luciferase activation curve, with CHO-k1-humanCEACAM5 clone 11 [4]: 0.18 nM | EC50 of NFκB-luciferase activation curve, with CHO-k1-humanCEACAM5 clone 12 [4]: 0.19 nM | AUC of NFκB-luciferase activation curve, no CEA+ cells [5]: 5070 | AUC of NFκB-luciferase activation curve, with CHO-k1-cynoCEACAM5 clone 8 [5]: 4920 | AUC of NFκB-luciferase activation curve, with CHO-k1-humanCEACAM5 clone 11 [5]: 15400 | AUC of NFκB-luciferase activation curve, with CHO-k1-humanCEACAM5 clone 12 [5]: 11900
B2: anti-4-1BB (20H4.9) huIgG1 P329GLALA (antibody, V domains shown)
VH: QVQLQQWGAGLLKPSETLSLTCAVYGGSFSGYYWSWIRQSPEKGLEWIGEINHGGYVTYNPSLESRVTISVDTSKNQFSLKLSSVTAADTAVYYCARDYGPGNYDWYFDLWGRGTLVTVSS
VL: EIVLTQSPATLSLSPGERATLSCRASQSVSSYLAWYQQKPGQAPRLLIYDASNRATGIPARFSGSGSGTDFTLTISSLEPEDFAVYYCQQRSNWPPALTFGGGTKVEIK
notes: Standard huIgG1 P329G LALA antibody with two anti-4-1BB Fabs
